Reference: patent publication US20260174875A1 (Novo Nordisk A/S, priority 2023, published 2026)
Numbered stars: 1 amine (or outer) side, 2 acyl side, 3 side chain; on linkers, the order of the positions; unused ones are H or OH. Square brackets hold non-standard residues; d marks the D form. Side chains are listed from the residue outwards. * marks the point of attachment. C20 diacid = O=C(O)CCCCCCCCCCCCCCCCCCC(=O)*; γGlu = O=C(O)[C@H](CCC(=O)[*:2])N[*:1]; Chem. 27 = not defined here; AEEA = NCCOCCOCC(=O)O; Aib = CC(C)(N)C(=O)O

B1: Compound 183 (peptide)
peptide: Y[Aib]EGTFTSDYSK(Chem. 27)LLEEIAAREFIEWLLAGGPSSGAGASELSTAQLGRLSAELHQLATLPRTETGSGSP-NH2
modifications: reading uncertain
B2: Compound 176 (peptide)
peptide: Y[Aib]EGTFTSDYSILLEEIAAREFIEWLLAGGPSSGAGASELSTAQTQRLSAELHK(Chem. 27)LATLPRTETGSGSP-NH2
modifications: reading uncertain
B3: Compound 115 (peptide)
peptide: Y[Aib]EGTFTSDYSILLEEQAAREFIEWLLAGGPSSGAGQAPGQAPGASHLSTAQTQRLSAELHK([AEEA-AEEA-γGlu-C20 diacid])LATLPRTETGSGSP-NH2
B4: Compound 181 (peptide)
peptide: Y[Aib]EGTFTSDYSILLEEIAAREFIEWLLAGGPSSEAGASQLSTAQTQRLSAELHK(Chem. 27)LATLPRTETGSGSP-NH2
modifications: reading uncertain
B5: Compound 179 (peptide)
peptide: Y[Aib]EGTFTSDYSILLEEIAAREFIEWLLAGGPSSGAGASHLSTAQTQRLSAELHK(Chem. 27)LATEPRTETGSGSP-NH2
modifications: reading uncertain
B6: Compound 189 (peptide)
peptide: Y[Aib]EGTFTSDYSILLEEIAAREFIEWLLAGGPSSGAGEAPGEAPGASHLSTAQTQRLSAELHK(Chem. 27)LATLPRTETGSGSP-NH2
modifications: reading uncertain

Biological target: T1, human GLP-1 receptor (human, UniProt P43220 24-463)
Assay: cell-based or functional assay
Conditions: not given

Molecule	hGLP-1R Potency, 1% HSA, EC50 [pM]
B1	744
B2	178
B3	92.9
B4	134
B5	170
B6	81.9

Biological target: T2, human amylin-3(a) receptor (human, UniProt P30988 25-474; O60896 24-148)
T2 sequence (looked up) 1: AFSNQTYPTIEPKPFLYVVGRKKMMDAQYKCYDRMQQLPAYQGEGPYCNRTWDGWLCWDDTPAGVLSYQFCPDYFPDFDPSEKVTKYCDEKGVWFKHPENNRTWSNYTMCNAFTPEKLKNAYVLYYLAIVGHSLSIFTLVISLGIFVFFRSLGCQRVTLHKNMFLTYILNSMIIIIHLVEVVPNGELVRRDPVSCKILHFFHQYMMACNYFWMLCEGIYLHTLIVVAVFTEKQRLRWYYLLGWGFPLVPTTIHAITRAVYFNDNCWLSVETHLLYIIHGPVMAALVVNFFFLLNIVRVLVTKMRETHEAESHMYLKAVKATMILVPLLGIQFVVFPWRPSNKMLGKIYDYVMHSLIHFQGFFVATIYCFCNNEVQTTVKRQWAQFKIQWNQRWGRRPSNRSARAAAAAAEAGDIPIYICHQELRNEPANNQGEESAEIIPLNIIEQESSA
T2 sequence (looked up) 2: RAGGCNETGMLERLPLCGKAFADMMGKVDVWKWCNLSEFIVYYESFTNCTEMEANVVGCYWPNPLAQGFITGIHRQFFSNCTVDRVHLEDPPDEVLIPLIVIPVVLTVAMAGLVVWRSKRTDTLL
Assay: cell-based or functional assay
Conditions: not given

Molecule	hAMYR3 Potency, 1% HSA, EC50 [pM]
B1	108
B2	798
B3	551
B4	1300
B5	1350
B6	1210

Biological target: T3, human GIP receptor (human, UniProt P48546 22-466)
T3 sequence (looked up): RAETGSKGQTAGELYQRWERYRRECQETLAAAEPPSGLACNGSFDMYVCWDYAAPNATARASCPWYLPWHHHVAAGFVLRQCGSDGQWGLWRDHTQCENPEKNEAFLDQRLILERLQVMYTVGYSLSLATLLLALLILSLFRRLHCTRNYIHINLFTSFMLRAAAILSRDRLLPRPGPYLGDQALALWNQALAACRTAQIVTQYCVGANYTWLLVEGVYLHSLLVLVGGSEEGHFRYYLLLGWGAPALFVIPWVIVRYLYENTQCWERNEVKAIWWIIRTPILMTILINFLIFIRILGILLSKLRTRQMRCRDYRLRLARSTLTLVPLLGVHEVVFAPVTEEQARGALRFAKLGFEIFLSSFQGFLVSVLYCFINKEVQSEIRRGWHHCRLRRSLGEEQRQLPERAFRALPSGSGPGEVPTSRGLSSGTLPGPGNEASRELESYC
Assay: cell-based or functional assay
Conditions: not given

Molecule	hGIPR Potency, 1% HSA, EC50 [pM]
B1	71.4
B2	23.8
B3	38.9
B4	20.1
B5	25.5
B6	9.18

Test system: not given
Assay: not given
Conditions: endogenous hormone; cited from earlier work

Molecule	half-life [min]
Amylin (KCNTATCATQRLANFLVHSSNNFGAILSSTNVGSNTY; Islet amyloid polypeptide; UniProt P10997 34-70, looked up) ["a 37-amino acid long polypeptide hormone produced in pancreatic beta (β)-cell from where it is co-secreted with insulin"]	15 to 20

Biological target: T1, human GLP-1 receptor
Assay: cell-based or functional assay
Conditions: not given
Remark: another data set of the same source

Molecule	hGLP-1R Potency, no HSA, EC50 [pM]
B2	29.9
B3	19.4
B4	28.8
B5	23.3
B6	26.9

Biological target: T2, human amylin-3(a) receptor
Assay: cell-based or functional assay
Conditions: not given
Remark: another data set of the same source

Molecule	hAMYR3 Potency, no HSA, EC50 [pM]
B1	6.2
B2	11.2
B3	7.13
B4	8.46
B5	10
B6	12.7

Biological target: T3, human GIP receptor
Assay: cell-based or functional assay
Conditions: not given
Remark: another data set of the same source

Molecule	hGIPR Potency, no HSA, EC50 [pM]
B1	2
B2	3.66
B3	10.3
B4	3.25
B5	4.36
B6	3.18
